Holding throughout (experiment): cell-based or functional assay
Test [1] deals with T1, BDKRB2 (UniProt P30411 1-391, limits assumed).
T1 sequence (looked up): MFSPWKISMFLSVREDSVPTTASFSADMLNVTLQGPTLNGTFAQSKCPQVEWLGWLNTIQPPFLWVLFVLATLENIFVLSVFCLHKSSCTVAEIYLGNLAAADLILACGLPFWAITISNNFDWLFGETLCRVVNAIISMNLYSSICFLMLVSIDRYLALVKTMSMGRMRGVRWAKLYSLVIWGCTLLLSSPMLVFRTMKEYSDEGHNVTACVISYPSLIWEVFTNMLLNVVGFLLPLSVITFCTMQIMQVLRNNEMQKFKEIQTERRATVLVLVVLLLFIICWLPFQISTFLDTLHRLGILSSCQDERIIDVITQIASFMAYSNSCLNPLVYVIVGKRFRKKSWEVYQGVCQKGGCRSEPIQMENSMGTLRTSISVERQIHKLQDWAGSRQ

The target in test [2] is CNR2 (UniProt P34972 1-360).
Sequence of CNR2 (P34972 whole entry): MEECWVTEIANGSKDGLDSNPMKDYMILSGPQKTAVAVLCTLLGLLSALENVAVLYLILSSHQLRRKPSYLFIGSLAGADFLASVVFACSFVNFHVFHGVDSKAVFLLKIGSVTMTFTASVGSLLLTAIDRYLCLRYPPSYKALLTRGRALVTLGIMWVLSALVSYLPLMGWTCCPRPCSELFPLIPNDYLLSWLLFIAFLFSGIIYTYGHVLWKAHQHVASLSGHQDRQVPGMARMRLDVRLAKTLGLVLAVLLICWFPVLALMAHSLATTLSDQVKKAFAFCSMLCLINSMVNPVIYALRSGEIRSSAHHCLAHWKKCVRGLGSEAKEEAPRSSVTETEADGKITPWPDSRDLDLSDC
Test [3] addresses T2, ADRA2A (UniProt P08913 1-465).
T2 sequence (looked up): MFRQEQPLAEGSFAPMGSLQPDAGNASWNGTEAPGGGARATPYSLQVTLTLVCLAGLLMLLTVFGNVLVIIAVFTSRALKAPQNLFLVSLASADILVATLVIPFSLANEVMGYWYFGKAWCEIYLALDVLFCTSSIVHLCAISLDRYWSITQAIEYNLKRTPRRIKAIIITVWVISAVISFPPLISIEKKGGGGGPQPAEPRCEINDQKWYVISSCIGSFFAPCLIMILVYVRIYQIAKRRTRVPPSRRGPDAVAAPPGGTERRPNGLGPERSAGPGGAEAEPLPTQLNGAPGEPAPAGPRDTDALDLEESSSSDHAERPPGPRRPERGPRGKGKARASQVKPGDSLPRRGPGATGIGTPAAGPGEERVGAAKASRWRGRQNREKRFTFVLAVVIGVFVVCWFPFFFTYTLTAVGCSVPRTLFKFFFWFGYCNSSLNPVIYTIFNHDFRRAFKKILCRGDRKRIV

For test [4], the target named is SSTR1 (UniProt P30872 1-391).
Sequence of SSTR1 (P30872 whole entry): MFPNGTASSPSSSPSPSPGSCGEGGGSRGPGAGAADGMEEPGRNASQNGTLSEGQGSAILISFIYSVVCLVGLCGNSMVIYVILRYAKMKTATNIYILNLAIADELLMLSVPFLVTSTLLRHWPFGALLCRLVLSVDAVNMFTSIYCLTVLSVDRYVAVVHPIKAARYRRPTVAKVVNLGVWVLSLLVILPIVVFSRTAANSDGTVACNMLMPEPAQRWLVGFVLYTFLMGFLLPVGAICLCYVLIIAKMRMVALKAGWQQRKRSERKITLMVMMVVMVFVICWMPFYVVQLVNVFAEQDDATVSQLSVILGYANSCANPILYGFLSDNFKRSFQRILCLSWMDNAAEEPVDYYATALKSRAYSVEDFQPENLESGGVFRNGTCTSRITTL
In test [5] the target is P2RY12 (UniProt Q9H244 1-342).
Sequence of P2RY12 (Q9H244 whole entry, one chain of several): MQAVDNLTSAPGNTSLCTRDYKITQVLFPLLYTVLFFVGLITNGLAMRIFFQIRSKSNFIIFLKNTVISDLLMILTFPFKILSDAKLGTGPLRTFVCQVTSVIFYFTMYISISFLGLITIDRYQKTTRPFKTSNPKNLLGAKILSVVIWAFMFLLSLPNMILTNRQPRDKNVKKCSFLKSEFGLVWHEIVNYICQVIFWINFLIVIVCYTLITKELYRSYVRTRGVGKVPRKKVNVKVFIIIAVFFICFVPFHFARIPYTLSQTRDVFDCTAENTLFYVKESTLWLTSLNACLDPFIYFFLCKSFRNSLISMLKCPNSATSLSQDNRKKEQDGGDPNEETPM
The target in test [6] is T3, AVPR1B (UniProt P47901 1-424).
T3 sequence (looked up): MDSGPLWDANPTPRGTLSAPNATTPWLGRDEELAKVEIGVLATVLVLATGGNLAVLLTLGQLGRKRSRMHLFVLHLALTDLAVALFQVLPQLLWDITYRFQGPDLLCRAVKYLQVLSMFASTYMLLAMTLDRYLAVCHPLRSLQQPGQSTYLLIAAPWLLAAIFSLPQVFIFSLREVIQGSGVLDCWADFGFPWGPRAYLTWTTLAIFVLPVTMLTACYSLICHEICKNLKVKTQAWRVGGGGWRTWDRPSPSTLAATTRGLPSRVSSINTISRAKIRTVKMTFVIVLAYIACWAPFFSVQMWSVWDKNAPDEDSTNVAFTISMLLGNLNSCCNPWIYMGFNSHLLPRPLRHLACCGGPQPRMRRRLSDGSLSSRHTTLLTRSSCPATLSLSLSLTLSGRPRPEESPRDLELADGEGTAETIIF

In test [7] the target is T4, NPBWR1 (UniProt P48145 1-328).
T4 sequence (looked up): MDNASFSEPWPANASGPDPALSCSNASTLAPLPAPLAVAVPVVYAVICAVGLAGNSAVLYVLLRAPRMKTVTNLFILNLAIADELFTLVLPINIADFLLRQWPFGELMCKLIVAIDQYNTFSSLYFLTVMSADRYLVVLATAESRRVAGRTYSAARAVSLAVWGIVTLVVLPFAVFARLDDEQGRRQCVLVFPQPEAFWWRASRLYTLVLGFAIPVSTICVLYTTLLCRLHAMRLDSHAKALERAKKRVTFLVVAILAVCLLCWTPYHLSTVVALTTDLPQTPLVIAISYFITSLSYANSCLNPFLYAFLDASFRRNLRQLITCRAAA

Test [8] has as its target T5, CCR4 (UniProt P51679 1-360).
T5 sequence (looked up): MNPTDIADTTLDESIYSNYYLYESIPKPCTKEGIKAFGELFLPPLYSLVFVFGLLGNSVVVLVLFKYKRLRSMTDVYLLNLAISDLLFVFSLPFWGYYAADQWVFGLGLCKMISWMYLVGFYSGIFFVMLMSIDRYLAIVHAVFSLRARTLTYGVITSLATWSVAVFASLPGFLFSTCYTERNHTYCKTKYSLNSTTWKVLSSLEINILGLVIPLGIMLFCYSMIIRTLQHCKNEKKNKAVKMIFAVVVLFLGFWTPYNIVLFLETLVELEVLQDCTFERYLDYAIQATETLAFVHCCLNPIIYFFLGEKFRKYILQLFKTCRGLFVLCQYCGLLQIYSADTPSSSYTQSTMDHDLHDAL

Test [9] deals with OPRM1 (UniProt P35372 1-400).
Sequence of OPRM1 (P35372 whole entry): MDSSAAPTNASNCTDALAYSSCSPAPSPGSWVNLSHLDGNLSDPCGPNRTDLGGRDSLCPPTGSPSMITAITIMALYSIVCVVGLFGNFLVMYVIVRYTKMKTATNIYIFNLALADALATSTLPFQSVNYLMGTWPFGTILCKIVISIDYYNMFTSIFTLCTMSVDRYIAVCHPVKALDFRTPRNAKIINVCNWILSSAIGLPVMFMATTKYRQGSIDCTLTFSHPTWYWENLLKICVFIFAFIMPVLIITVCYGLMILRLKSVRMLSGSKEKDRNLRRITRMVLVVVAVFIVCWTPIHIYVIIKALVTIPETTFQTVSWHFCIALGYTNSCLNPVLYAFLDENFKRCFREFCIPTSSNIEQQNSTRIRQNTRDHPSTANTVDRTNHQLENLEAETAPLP
The target of test [10] is EDG3 (UniProt Q99500 1-378).
Sequence of EDG3 (Q99500 whole entry): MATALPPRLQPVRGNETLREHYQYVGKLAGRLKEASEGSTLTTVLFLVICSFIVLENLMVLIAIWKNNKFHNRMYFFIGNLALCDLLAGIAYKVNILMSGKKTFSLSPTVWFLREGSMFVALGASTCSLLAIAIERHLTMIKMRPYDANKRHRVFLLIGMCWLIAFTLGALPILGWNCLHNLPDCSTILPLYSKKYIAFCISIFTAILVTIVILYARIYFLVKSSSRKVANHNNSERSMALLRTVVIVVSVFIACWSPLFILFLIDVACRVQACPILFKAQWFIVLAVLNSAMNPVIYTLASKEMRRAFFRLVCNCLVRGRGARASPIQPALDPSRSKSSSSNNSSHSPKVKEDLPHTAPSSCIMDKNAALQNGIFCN
The target in test [11] is T6, C5aR1 (UniProt P21730 1-350).
T6 sequence (looked up): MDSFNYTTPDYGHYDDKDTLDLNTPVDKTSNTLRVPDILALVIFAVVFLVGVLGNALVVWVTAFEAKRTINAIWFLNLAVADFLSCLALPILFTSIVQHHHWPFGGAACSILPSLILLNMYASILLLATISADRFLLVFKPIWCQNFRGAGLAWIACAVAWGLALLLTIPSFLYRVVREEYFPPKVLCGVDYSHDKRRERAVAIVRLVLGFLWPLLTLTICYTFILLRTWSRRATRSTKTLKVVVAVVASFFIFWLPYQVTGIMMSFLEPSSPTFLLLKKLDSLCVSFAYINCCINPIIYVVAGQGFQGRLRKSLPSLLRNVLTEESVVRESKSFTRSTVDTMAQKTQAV

Where no end group is shown, it is not given here.

Turning to QATVGDVNTDRPGLLDLK (also: synthesised on Rink amide resin, C-terminal amide not given here outright) [octadecaneuropeptide (ODN)], the “% Activity, arrestin, antagonist mode, 2.5 uM” value was -1.7% in test [1]; 3.6% in test [2]; -27.2% in test [3]; -1.6% in [4]; -11% in test [5]; -25.7% in [6]. Further, the “% Activity, arrestin, antagonist mode, 2.5 uM” value is -15% in test [7]; 1.3% in test [8]; -21.1% in test [9]; 15.4% in test [10]; -14.2% in [11].

Source of the values: patent publication US20260184748A1 (University of Pennsylvania, published 2026).
